T1: Drosophila Orc3 (amino acid residues 47-721) of the trimmed ORC core (Drosophila, UniProt Q7K2L1 47-721)
T1 sequence (looked up): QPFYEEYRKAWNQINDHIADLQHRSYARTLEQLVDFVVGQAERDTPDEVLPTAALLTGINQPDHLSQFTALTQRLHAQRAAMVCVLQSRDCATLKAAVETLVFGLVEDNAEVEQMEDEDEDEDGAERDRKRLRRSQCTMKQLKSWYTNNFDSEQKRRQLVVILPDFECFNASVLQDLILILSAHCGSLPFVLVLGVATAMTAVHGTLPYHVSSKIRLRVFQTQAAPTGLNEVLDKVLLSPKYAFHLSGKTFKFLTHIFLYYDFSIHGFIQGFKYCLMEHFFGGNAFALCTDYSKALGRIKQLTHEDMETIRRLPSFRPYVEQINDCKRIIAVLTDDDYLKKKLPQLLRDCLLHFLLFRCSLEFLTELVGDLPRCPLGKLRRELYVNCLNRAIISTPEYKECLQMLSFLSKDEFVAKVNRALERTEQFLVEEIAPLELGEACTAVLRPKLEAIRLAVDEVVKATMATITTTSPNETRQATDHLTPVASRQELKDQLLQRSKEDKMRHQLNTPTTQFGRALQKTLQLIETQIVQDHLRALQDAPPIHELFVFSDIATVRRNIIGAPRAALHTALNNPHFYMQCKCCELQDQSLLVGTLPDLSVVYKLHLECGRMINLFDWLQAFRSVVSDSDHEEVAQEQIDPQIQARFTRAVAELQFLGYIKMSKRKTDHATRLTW

B1: Drosophila Orc4 (amino acid residues 1-459) (natural protein, UniProt Q9W102 1-459, looked up)
chain: MPEADRELVSIRRFLKERLQRDYTTLRGYAKERSNVRLLLQRTAEMGESNSLLLLGPRGSGKTTLINSVLADLLPNKSFGENTLIVHLDGNLHTDDRVALKSITVQMQLENAADGKVFGSFAENLAFLLQCLKAGGKHSKSVIFILEEFDLFCAHHNQTLLYNLFDVSQSAQAPICVLGVTCRLDVIELLEKRVKSRFSHRQVFLFPSLRRFEDYVDLCRDLLSLPTGNSLLLAAEKIYNLQNIQSGALYFSRNHFDPGEYGFSPRLRDAWNKQICKVLATQQARSTLQALHDFDISEAYLKNFLFRLVAHLRPQSPHITAEKMAAVGSQFEGDDKIELLCGLSVLELCLIIAIKHHSQIYDRDSFNFEIIYARFSKFAKVSTTMQAVERSIVLKAFEHLRIAELIMPLTGGAGGGVGKVQKEFEMHKLALTYSQIHHCMQRYQALPTEVAQWAQSSLI
B2: Drosophila Orc1 (amino acid residues 533-924) of the trimmed ORC core (domain or fragment, UniProt O16810 533-924, looked up)
chain: SPSMQQRTDLPAKDSSKSELQLAREQLHVSVVPKSLPCREREFENIYAFLEGKIQDQCGGCMYVSGVPGTGKTATVTGVIRTLQRMAKQNELPAFEYLEINGMRLTEPRQAYVQIYKQLTGKTVSWEQAHALLEKRFTTPAPRRVTTVLLVDELDILCNRRQDVVYNLLDWPTKSAAKLVVVTIANTMDLPERLLMGKVTSRLGLTRLTFQPYSHKQLQEIVTARLGGSETFKGEAVQLVARKVAAVSGDARRALDICRRATEIADTAAVKCVTMLHVQQALAEMIASAKVQAIRNCSRMEQIFLQAIAAEVTRTGVEETTFMGVYQQVETIAAFMGVTFPPPGRALRLCSKLGAERLIISEHSRNDLFQKILLNVSADDIHYALRVEEMVN
B3: Drosophila Orc5 (amino acid residues 1-460) (natural protein, UniProt Q24169 1-460, looked up)
chain: MEAICSSLEPLFPCREAAIETLGELIGDSSETYPSAIYLFGHSGTGKTALTRAFLKECGKRQNVRTAHLNAIECYTTKIMLEILLDSLAPDQGDALKVDNMLDFVEQLRRQAATRVEDQGFLIAVDNAERLRDMDANVLPVLLRLQELTNLNLCVILLSQLPFEKFYNKTGLSEIVCLHLAQYNKAETQRILGSDFQQVRNQLLEQFAQDKKRLEICQEAVTEDFYNNYLNLFLSVFYKACRDVPELQLTARKCLSTYLEPVLDGTVDATDISRLWRHIAGPLRSALTQIYMRIEKPAEEVEDFTAIEDQSVRKLAQSLELPYYAKFLLIAAFLASHNAAKQDKRLFVKHHGKQRKRMQTVNARAKTTEKMSTTLGPKSFSIDRLLAIFYAILEEKVGLTCNLLSQISTLVHLNLLSFVSGEQNIMEGSARLQCTIGLEFVLQIGKVVGFNVRQYLCDFM
B4: Drosophila Orc2 (amino acid residues 266-618) of the trimmed ORC core (domain or fragment, UniProt Q24168 266-618, looked up)
chain: QSARAKKSNEFVPESDGYFHSHASSKILTSDHTLDRLKNPRLAADRVFSLLSEIKTSAEHEGSINAIMEEYRSYFPKWMCILNEGFNILLYGLGSKHQLLQSFHREVLHKQTVLVVNGFFPSLTIKDMLDSITSDILDAGISPANPHEAVDMIEEEFALIPETHLFLIVHNLDGAMLRNVKAQAILSRLARIPNIHLLASIDHINTPLLWDQGKLCSFNFSWWDCTTMLPYTNETAFENSLLVQNSGELALSSMRSVFSSLTTNSRGIYMLIVKYQLKNKGNATYQGMPFRDLYSSCREAFLVSSDLALRAQLTEFLDHKLVKSKRSVDGSEQLTIPIDGALLQQFLEEQEKK

Assays:
Assay in all cases: crystal structure
[1] = target: B3
[2] = target: B1
[3] = target: T1, Drosophila Orc3 (amino acid residues …)
[4] = target: B2

| binding result [1] | binding result [2] | binding result [3] | binding result [4] | Binder |
| --- | --- | --- | --- | --- |
| binds |  |  |  | B1 |
|  | binds | binds |  | B2 |
|  |  | binds |  | B3 |
|  |  | binds | binds | B4 |

Reference: paper PMC4368505 (Nature, 2015)
